Tests used:
[1] = target: T1, anti-IGF-1R antibody (IgG1 subclass with mutations I253A/H310A/H435A); test: ELISA assay B, tracer M1.7.10-Dig, target 50 ng/mL
T1 construct: Positions are EU numbers; also called sample 3; antibody 3
Description: (§1) Biotinylated anti-PG Fc-region antibody or biotinylated anti-AAA Fc-region antibody, respectively, was bound to the wells of a streptavidin-coated multi-well plate (SA-MTP) to produce a capture plate. Excess of unbound antibody was removed by washing. Sample/standard antibodies spiked in human and cynomolgus monkey serum (10% final concentration) was added to wells of the SA-MTP multi-well plate coated with the capture plate and incubated for 1 hour at room temperature. After washing, the wells were incubated with digoxygenylated anti-human kappa antibody M1.7.10 (see e.g. WO 2011/048043, incorporated herein by reference). After washing the bound digoxygenylated anti-human kappa antibody complex was incubated with a horseradish peroxidase (HRP) labelled anti-digoxygenin antibody. After another washing step, an ABTS solution was added to the wells and incubated. The product of the color reaction was measured by Elisa reader at 405 nm wavelength (reference wavelength: 490 nm). Absorbance values of each sample or standard were determined in triplicates.

[2] = target: T2, anti-P-Selectin antibody (IgG4 subclass with mutations S228P/L235E); test: ELISA assay B, tracer M1.7.10-Dig, target 50 ng/mL
T2 construct: Positions are EU numbers; also called sample 4; antibody 4
Description: as §1

[3] = target: T3, anti-VEGF/ANG2 antibody (IgG1 subclass with mutations P329G/L234A/L235A/I253A/H310A/H435A); test: ELISA assay B, tracer M1.7.10-Dig, target 50 ng/mL
T3 construct: Format of the bispecific antibody not described; Positions are EU numbers, not positions on the UniProt entry; also called sample 1; antibody 1
Description: as §1

[4] = target: T4, anti-VEGF/ANG2 antibody (wild-type IgG1 subclass) (UniProt P01857-1 1-330 = IgG part); test: ELISA assay B, tracer M1.7.10-Dig, target 50 ng/mL
T4 construct: also called sample 5; antibody 5
Description: as §1

[5] = target: T5, anti-VEGF/ANG2 antibody (IgG1 subclass with mutations P329G/L234A/L235A); test: ELISA assay B, tracer M1.7.10-Dig, target 50 ng/mL
T5 construct: Positions are EU numbers; also called sample 2; antibody 2
Description: as §1

[6] = target: T1, anti-IGF-1R antibody (IgG1 subclass …); test: ELISA assay C, tracer FcγRI-Dig, target 13 ng/mL
[7] = target: T2, anti-P-Selectin antibody (IgG4 subclass …); test: ELISA assay C, tracer FcγRI-Dig, target 13 ng/mL
[8] = target: T3, anti-VEGF/ANG2 antibody (IgG1 subclass …); test: ELISA assay C, tracer FcγRI-Dig, target 13 ng/mL
[9] = target: T4, anti-VEGF/ANG2 antibody (wild-type IgG1 …); test: ELISA assay C, tracer FcγRI-Dig, target 13 ng/mL
[10] = target: T5, anti-VEGF/ANG2 antibody (IgG1 subclass …); test: ELISA assay C, tracer FcγRI-Dig, target 13 ng/mL
[11] = target: T1, anti-IGF-1R antibody (IgG1 subclass …); test: ELISA assay C, tracer FcγRI-Dig, target 25 ng/mL
[12] = target: T2, anti-P-Selectin antibody (IgG4 subclass …); test: ELISA assay C, tracer FcγRI-Dig, target 25 ng/mL
[13] = target: T3, anti-VEGF/ANG2 antibody (IgG1 subclass …); test: ELISA assay C, tracer FcγRI-Dig, target 25 ng/mL
[14] = target: T4, anti-VEGF/ANG2 antibody (wild-type IgG1 …); test: ELISA assay C, tracer FcγRI-Dig, target 25 ng/mL
[15] = target: T5, anti-VEGF/ANG2 antibody (IgG1 subclass …); test: ELISA assay C, tracer FcγRI-Dig, target 25 ng/mL
[16] = target: T1, anti-IGF-1R antibody (IgG1 subclass …); test: ELISA assay B, tracer M1.7.10-Dig, target 3 ng/mL
Description: as §1

[17] = target: T2, anti-P-Selectin antibody (IgG4 subclass …); test: ELISA assay B, tracer M1.7.10-Dig, target 3 ng/mL
Description: as §1

[18] = target: T3, anti-VEGF/ANG2 antibody (IgG1 subclass …); test: ELISA assay B, tracer M1.7.10-Dig, target 3 ng/mL
Description: as §1

[19] = target: T4, anti-VEGF/ANG2 antibody (wild-type IgG1 …); test: ELISA assay B, tracer M1.7.10-Dig, target 3 ng/mL
Description: as §1

[20] = target: T2, anti-P-Selectin antibody (IgG4 subclass …); test: ELISA assay B, tracer M1.7.10-Dig, target 13 ng/mL
Description: as §1

[21] = target: T3, anti-VEGF/ANG2 antibody (IgG1 subclass …); test: ELISA assay B, tracer M1.7.10-Dig, target 13 ng/mL
Description: as §1

[22] = target: T4, anti-VEGF/ANG2 antibody (wild-type IgG1 …); test: ELISA assay B, tracer M1.7.10-Dig, target 13 ng/mL
Description: as §1

[23] = target: T5, anti-VEGF/ANG2 antibody (IgG1 subclass …); test: ELISA assay B, tracer M1.7.10-Dig, target 13 ng/mL
Description: as §1

signal [OD405 nm] [1] [OD405 nm]	signal [OD405 nm] [2] [OD405 nm]	signal [OD405 nm] [3] [OD405 nm]	signal [OD405 nm] [4] [OD405 nm]	signal [OD405 nm] [5] [OD405 nm]	signal [OD405 nm] [6] [OD405 nm]	signal [OD405 nm] [7] [OD405 nm]	signal [OD405 nm] [8] [OD405 nm]	signal [OD405 nm] [9] [OD405 nm]	signal [OD405 nm] [10] [OD405 nm]	signal [OD405 nm] [11] [OD405 nm]	signal [OD405 nm] [12] [OD405 nm]	signal [OD405 nm] [13] [OD405 nm]	signal [OD405 nm] [14] [OD405 nm]	signal [OD405 nm] [15] [OD405 nm]	signal [OD405 nm] [16] [OD405 nm]	signal [OD405 nm] [17] [OD405 nm]	signal [OD405 nm] [18] [OD405 nm]	signal [OD405 nm] [19] [OD405 nm]	signal [OD405 nm] [20] [OD405 nm]	Binder	other results
2.9	0.047	0.05	0.049	0.127	0.175	0.052	0.064	0.07	0.061	0.401	0.06	0.081	0.066	0.063	2.26	0.039	0.039	0.037	0.042	anti-AAA variant Fc-region antibody M1.6.22 (antibody, V domains shown, Murine variable domains; also called M1.6.22-Bi) VH: EVQLVESGGDLVKPGGSLKLSCAASGFTFSSYGMSWVRQTPDKRLEWVATISSGGSYIYYPDSVKGRFTISRDNAKNTLYLQMSSLKSEDTAMYYCARLGMITTGYAMDYWGQGTSVTVSS VL: DVLMTQTPLSLPVSLGDQASISCRSSQTIVHSTGHTYLEWFLQKPGQSPKLLIYKVSNRFSGVPDRFSGSGSGTDFTLKISRVEAEDLGVYYCFQGSHVPYTFGGGTKLEIK	signal [OD405 nm] [21]: 0.041 OD405 nm; signal [OD405 nm] [22]: 0.046 OD405 nm; signal [OD405 nm] [23]: 0.066 OD405 nm
0.048	0.049	0.035	0.042	0.215	1.21	1.16	1.14	1.17	1.23	1.2	1.17	1.07	1.16	1.21	0.047	0.05	0.036	0.044	0.047	anti-PG variant Fc-region antibody M1.3.17 (antibody, V domains shown, Monomeric, bivalent full-length antibody with murine variable domains; Biotinylated when used as capture antibody; also called anti-PG antibody clone 1.3.17; M1.3.17-Bi) VH: EVKLLESGGGLVQPGGSLKLSCAASGIDFRRYWMNWVRQAPGKGLEWIGEIDPDSSTINYTPSLKDKFIISRDNAKNTMYLQMRKVRSEDTALYYCARPYDYGAWFAYWGQGTLVTVSA VL: QAVVTQESALTTSPGETVTLTCRSTTGAVTTSNYANWVQEKPDHLFTGLIGGTNKRAPGVPARFSGSLIGDKAALTITGAQTEDEAIYFCALWYSDHWVFGGGTKLTVL	signal [OD405 nm] [21]: 0.034 OD405 nm; signal [OD405 nm] [22]: 0.042 OD405 nm; signal [OD405 nm] [23]: 0.217 OD405 nm
0.064	0.043	0.06	0.04	3.17	0.058	0.066	0.085	0.057	0.06	0.073	0.07	0.082	0.063	0.083	0.046	0.031	0.04	0.033	0.037	anti-PG variant Fc-region antibody M1.7.24 (monomeric, bivalent) (antibody, V domains shown, Full-length Y-shaped antibody with murine variable domains; Biotinylated when used as capture antibody; also called anti-PG antibody clone 1.7.24; M1.7.24-Bi) VH: EVKLLESGGGLVQPGGSLKLSCAASGFDFSRYWMNWVRQAPGKGLEWIGEITPDSSTINYTPSLKDKFIISRDNAKNTLYLQMIKVRSEDTALYYCVRPYDYGAWFASWGQGTLVTVSA VL: QAVVTQESALTTSPGETVTLTCRSSTGAVTTSNYANWVQEKPDHLFTGLIGGTNKRAPGVPARFSGSLIGDKAALTITGAQTEDEAIYFCALWYSNHWVFGGGTKLTVL	signal [OD405 nm] [21]: 0.053 OD405 nm; signal [OD405 nm] [22]: 0.04 OD405 nm; signal [OD405 nm] [23]: 3.15 OD405 nm

Reference: patent US20240410900A1 (Hoffmann-La Roche, published 2024)
